In one experiment the target is T1, µ receptor (rat brain) (rat, UniProt P33535 1-398).
T1 construct: whole, on cells; Native receptor in crude rat brain plasma membrane homogenate, not on intact cells; also called µ opioid receptor; opioid receptor
Nature of the experiment: radioligand competition, [3H]DAMGO on crude rat brain plasma membranes, 4 C, 90 min, filtration. (Loss of bound radioactivity is the signal in a displacement assay; it reports binding, not function.)

In another experiment the target is T2, NK1 receptor (rat brain) (rat, UniProt P14600 1-407).
T2 construct: whole, on cells; Native receptor in crude rat brain plasma membrane homogenate, not on intact cells; also called SP receptor
As to the kind of experiment: radioligand competition, [125I]BH-SP on crude rat brain plasma membranes, room temperature, 75 min, filtration.

Ends that are not written are not given here.

A word on the Kd: it is the equilibrium constant for the complex coming apart. Low readings indicate higher affinity, high ones lower affinity.

T1 sequence (P33535 whole entry): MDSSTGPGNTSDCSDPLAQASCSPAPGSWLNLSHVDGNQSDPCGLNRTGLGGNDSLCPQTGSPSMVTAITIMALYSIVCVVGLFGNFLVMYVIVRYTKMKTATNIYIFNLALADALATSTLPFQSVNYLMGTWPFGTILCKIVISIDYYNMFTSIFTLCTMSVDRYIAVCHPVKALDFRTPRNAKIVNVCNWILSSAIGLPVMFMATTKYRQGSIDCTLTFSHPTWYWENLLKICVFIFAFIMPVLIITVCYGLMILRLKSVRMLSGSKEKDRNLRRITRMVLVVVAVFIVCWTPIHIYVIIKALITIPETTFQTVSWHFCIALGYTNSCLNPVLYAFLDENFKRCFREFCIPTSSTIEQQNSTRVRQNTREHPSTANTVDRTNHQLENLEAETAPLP
T2 sequence (P14600 whole entry): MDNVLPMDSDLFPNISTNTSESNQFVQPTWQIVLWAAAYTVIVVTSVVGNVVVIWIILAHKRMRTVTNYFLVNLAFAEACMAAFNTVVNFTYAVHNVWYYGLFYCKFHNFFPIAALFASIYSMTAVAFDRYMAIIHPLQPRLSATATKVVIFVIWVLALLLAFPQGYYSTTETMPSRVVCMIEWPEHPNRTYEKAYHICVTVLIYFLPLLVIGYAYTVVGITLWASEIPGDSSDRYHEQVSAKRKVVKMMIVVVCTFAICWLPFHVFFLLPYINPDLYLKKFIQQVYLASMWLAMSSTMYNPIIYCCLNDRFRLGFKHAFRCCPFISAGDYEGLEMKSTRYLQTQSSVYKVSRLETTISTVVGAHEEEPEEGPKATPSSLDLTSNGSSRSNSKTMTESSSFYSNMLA
Procedure for NK1 receptor (rat brain): (§1) For binding assays to opioid receptors, frozen rat brains (−80° C.) were homogenized in 40 volumes of standard Tris buffer (50 mM Tris HCl (pH 7.4), 0.2 mg/ml BSA, 2.5 mM EDTA, 40 μg/m bacitracin, 30 μg/ml bestatin and 5 mM MgCl₂) and centrifuged at 15,000×g for 20 minutes. 100 mM NaCl was added to the buffer, in order to remove endogenous ligands, and the centrifugation was repeated. After a wash with standard buffer, the membrane preparation was finally resuspended in 10 volumes of incubation buffer (standard buffer with 4 μg/ml leupeptin and 2 μg/ml chymostatin). […] The brain homogenates were used on the day of preparation.
After filtration, the radioactivity was determined on a gamma-counter.
Procedure for µ receptor (rat brain): as §1
After incubation the samples were filtered on a Brandell-Harvester using an appropriate GF/B filter soaked in 50 mM Tris HCl (pH 7A) and 0.5% PEI. Scintillation fluid was added to the filters in order to solubilize the membranes, and a beta-counter was used to quantify radioactivity.

B1: ESP7 (peptide)
peptide: YPFFGLM-NH2
notes: Chimera of endomorphin-2 at the N-terminus and SP(7-11) at the C-terminus; also called chimeric peptide ESP7; Tyr-Pro-Phe-Phe-Gly-Leu-Met-NH2
Take B1: the Kd with µ receptor (rat brain) was around 300 nM; in the experiment with NK1 receptor (rat brain), around 200 nM.

Values taken from US20090298755A1 (NEW ENGLAND MEDICAL CENTER HOSPITALS, published 2009).
